According to PMC10889886:

Legend:
[1] = target: HCoV-229E Spike antigen (HCoV-229E) (UniProt P15423); test: […], PBS running buffer; […]
[2] = target: soluble SARS-CoV-2 Spike (S) (SARS-CoV-2); test: […], PBS running buffer; […]

Substance	stoichiometry N [1]	stoichiometry N [2]
HCoV-229E Spike antigen (from UniProt P15423 16-1173) (natural protein)	3	–
soluble SARS-CoV-2 Spike (S) (domain or fragment)	–	3
